Patent US20170137467A1 (CHROMOTEK, published 2017)
Substitutions are numbered along the chain they refer to. Square brackets hold non-standard residues; d marks the D form. GABA = NCCCC(=O)O

Columns and labels:
[1] = target: T1, BC2T A6K peptide (BC2TA6X library) (human); experiment: BC2TA6X library pulldown with immobilized Nb, LC-MS of the supernatant
T1 construct: also called lysine at position 6
T1 peptide: Ac-PDRKAKVSHWQQ-NH2
Procedure: (§1) To investigate the binding specificity of the BC2T and derived mutants peptide libraries for each amino acid position of the sequence […] (SEQ ID NO:4) were synthesized with acetyl and amide groups located at the N-termini or C-termini respectively (Intavis). […] Incubations were performed in 300 μl PBS/0.01% CHAPS for 1 h on a HulaMixer (Life Technologies). Subsequent to a centrifugation step 10 μl supernatant were analyzed in a LC-MS procedure. Peptides were separated using an UltiMate3000 RSLCnano System (Thermo Scientific), composed of a C18 PepMap100μ-Precolumn (300 μm×5 mm; particle size: 5 μm; pore size: 100 Å—Thermo Scientific) and a C18 analytical column (Acclaim Rapid Separation LC (RSLC) Column: 150 mm×5 mm; particle size: 2.2 μm; pore size: 100 Å—Thermo Scientific). A step gradient was applied starting at 8% and ending after 20 min at 30% eluent B (80% acetonitrile, 20% H₂O, 0.1% formic acid). Peptides were analyzed using a FULL-MS-strategy detected by a Q Exactive Plus mass spectrometer (Thermo Scientific). As maximal injection time 100 ms was chosen while setting the AGC target to 3E6. The resolution was set to 70.000. Half-maximal signal areas were referenced to control precipitation approaches using a GFP-specific nanobody immobilized on agarose beads. All experiments were done in triplicates.

[2] = target: T2, BC2T A6R peptide (BC2TA6X library) (human); experiment: as above
T2 construct: also called arginine at position 6
T2 peptide: Ac-PDRKARVSHWQQ-NH2
Procedure: as §1

BC2T Q12E = target: T3, BC2T Q12E; experiment: positional peptide library pulldown on immobilised Nb, LC-MS of supernatant; signal ratio to control GFP-Nb (1 = not captured, near 0 = captured)
T3 construct: positional scanning library member
T3 peptide: Ac-PDRKAAVSHWQE-NH2
Procedure, shortened: (§2)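 Unbound peptide left in supernatant after 1 h pulldown in PBS/0.01% CHAPS measured by reversed-phase LC-MS (8–30% eluent B gradient, 20 min).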

BC2T P1S = target: T4, BC2T P1S; experiment: as above
T4 construct: positional scanning library member
T4 peptide: Ac-SDRKAAVSHWQQ-NH2
Procedure, shortened: as §2

BC2T R3C(Abu) = target: T5, BC2T R3C(Abu) (SMILES …); experiment: as above
T5 construct: positional scanning library member
T5 peptide: Ac-PD[GABA]KAAVSHWQQ-NH2
Procedure, shortened: as §2

BC2T A6D = target: T6, BC2T A6D; experiment: as above
T6 construct: positional scanning library member
T6 peptide: Ac-PDRKADVSHWQQ-NH2
Procedure, shortened: as §2

BC2T V7R = target: T7, BC2T V7R; experiment: as above
T7 construct: positional scanning library member
T7 peptide: Ac-PDRKAARSHWQQ-NH2
Procedure, shortened: as §2

BC2T A5R = target: T8, BC2T A5R; experiment: as above
T8 construct: positional scanning library member
T8 peptide: Ac-PDRKRAVSHWQQ-NH2
Procedure, shortened: as §2

BC2T A6E = target: T9, BC2T A6E; experiment: as above
T9 construct: positional scanning library member
T9 peptide: Ac-PDRKAEVSHWQQ-NH2
Procedure, shortened: as §2

BC2T A6T = target: T10, BC2T A6T; experiment: as above
T10 construct: positional scanning library member
T10 peptide: Ac-PDRKATVSHWQQ-NH2
Procedure, shortened: as §2

BC2T A6W = target: T11, BC2T A6W; experiment: as above
T11 construct: positional scanning library member
T11 peptide: Ac-PDRKAWVSHWQQ-NH2
Procedure, shortened: as §2

BC2T R3D = target: T12, BC2T R3D; experiment: as above
T12 construct: positional scanning library member
T12 peptide: Ac-PDDKAAVSHWQQ-NH2
Procedure, shortened: as §2

BC2T A5K = target: T13, BC2T A5K; experiment: as above
T13 construct: positional scanning library member
T13 peptide: Ac-PDRKKAVSHWQQ-NH2
Procedure, shortened: as §2

BC2T A5Y = target: T14, BC2T A5Y; experiment: as above
T14 construct: positional scanning library member
T14 peptide: Ac-PDRKYAVSHWQQ-NH2
Procedure, shortened: as §2

BC2T A6H = target: T15, BC2T A6H; experiment: as above
T15 construct: positional scanning library member
T15 peptide: Ac-PDRKAHVSHWQQ-NH2
Procedure, shortened: as §2

BC2T K4R = target: T16, BC2T K4R; experiment: as above
T16 construct: positional scanning library member
T16 peptide: Ac-PDRRAAVSHWQQ-NH2
Procedure, shortened: as §2

BC2T S8K = target: T17, BC2T S8K; experiment: as above
T17 construct: positional scanning library member
T17 peptide: Ac-PDRKAAVKHWQQ-NH2
Procedure, shortened: as §2

B1: BC2 nanobody (VHH)
VHH: QVQLVESGGGLVQPGGSLTLSCTASGFTLDHYDIGWFRQAPGKEREGVSCINNSDDDTYYADSVKGRFTIFMDNAKDTVYLQMNSLKPEDTAIYYCAEARGCKRGRYEYDFWGQGTQVTVSS
notes: Alpaca VHH, 122 aa; also called BC2-Nb; BC2 nanotrap (BC2-Nb immobilized on agarose/Sepharose beads); not shown: C-terminal 6xHis-tag added by the pHEN6 vector
B1: no binding [1]; no binding [2].

B2: BC2 nanobody (VHH)
VHH: B1 VHH
notes: immobilised on beads in this assay; also called BC2-Nb; BC2 nanotrap (immobilised)
With B2 the ratio (BC2T Q12E) was 0.4.

B3: BC2-NbR106E (VHH)
VHH: B1 VHH with R106E
notes: headlock mutant of BC2-Nb; immobilised on beads in this assay
Work on B3 yielded a ratio (BC2T P1S) of 0.4, a ratio (BC2T R3C(Abu)) of 0.9 and a ratio (BC2T A6D) of 1. For the same binder, the ratio (BC2T V7R) was 0.1, the ratio (BC2T A5R) was 0 and the ratio (BC2T A6E) was 1.1. It also gave a ratio (BC2T A6T) of 0.3, a ratio (BC2T A6W) of 1 and a ratio (BC2T R3D) of 1. The ratio (BC2T A5K) was 0, the ratio (BC2T A5Y) was 0.1 and the ratio (BC2T A6H) was 1. For the same binder, the ratio (BC2T K4R) was 0.1.

B4: BC2-NbR106S (VHH)
VHH: B1 VHH with R106S
notes: as for B3
In the case of B4, the ratio (BC2T S8K) is reported as 0.9.
